Test results reported in patent publication US20070049521A1.

Assays:
[1] = target: NPR-C on ATDC5 cells (mouse chondrogenic cell line) (mouse) (UniProt P70180); assay: displacement of 125I-Ostn[83-133] from ATDC5 cells
[2] = target: human NPR-C (natriuretic peptide receptor C, clearance receptor), overexpressed on HEK293 cells (human) (UniProt P17342); assay: cell-based or functional assay
human NPR-C (natriuretic peptide receptor C, clearance receptor), overexpressed on HEK293 cells (human), sequence (P17342 27-541): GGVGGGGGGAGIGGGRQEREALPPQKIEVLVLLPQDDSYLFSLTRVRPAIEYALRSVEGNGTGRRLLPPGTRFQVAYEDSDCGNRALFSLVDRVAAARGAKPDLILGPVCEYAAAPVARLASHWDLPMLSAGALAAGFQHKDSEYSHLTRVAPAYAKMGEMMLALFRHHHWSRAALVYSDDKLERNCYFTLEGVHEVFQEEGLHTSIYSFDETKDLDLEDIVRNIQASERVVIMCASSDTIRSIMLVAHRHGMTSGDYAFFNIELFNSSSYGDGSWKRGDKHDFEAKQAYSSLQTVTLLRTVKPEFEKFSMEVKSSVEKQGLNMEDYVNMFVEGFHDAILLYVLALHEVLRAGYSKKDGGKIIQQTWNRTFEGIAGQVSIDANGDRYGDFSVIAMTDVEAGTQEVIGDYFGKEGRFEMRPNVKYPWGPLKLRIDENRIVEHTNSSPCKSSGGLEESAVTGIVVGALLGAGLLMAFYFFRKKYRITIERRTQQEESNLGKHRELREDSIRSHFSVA

NPR-C on ATDC5 cells (mouse chondrogenic cell line) (mouse), sequence (P70180 41-536): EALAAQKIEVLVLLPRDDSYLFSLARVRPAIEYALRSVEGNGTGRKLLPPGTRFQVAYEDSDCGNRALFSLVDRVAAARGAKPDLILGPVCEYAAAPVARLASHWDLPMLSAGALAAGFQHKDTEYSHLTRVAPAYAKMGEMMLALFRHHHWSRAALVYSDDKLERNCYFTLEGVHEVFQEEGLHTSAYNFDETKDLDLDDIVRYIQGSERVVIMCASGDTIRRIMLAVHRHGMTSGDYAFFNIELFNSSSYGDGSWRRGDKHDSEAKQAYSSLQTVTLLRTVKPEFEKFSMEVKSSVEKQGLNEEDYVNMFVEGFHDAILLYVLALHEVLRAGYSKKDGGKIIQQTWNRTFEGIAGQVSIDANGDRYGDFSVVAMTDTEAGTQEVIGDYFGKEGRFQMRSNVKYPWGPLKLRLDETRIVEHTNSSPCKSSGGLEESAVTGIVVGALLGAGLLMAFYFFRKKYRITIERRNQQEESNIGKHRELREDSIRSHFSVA

Substance | IC50 [1] | maximal inhibition at 1 µM, difference from that of cold Ostn[83-133] [1] | cGMP levels of NPR-C-expressing HEK293 cells with 0.1 nM ANP and 10 nM rhOstn[27-133] [2]
rat C-ANF (peptide) | 6.7 nM | 15 % less | 
N-terminal 6 histidine-tagged recombinant human Ostn rhOstn[27-133] (from UniProt G7NYP9 27-133) (ligand) |  |  | 8 fold
